Source: US20140112930A1 (published 2014)

B1: H2M742N (antibody, V domains shown)
VH: DVQLLESGGDLVQPGGSLRLSCEASGFTFRNYVMIWVRQAPGKGLEWVSGISNSGGTTHYTDSVKGRFTISRDNSKNTLYLQINSLRAEDTAVYYCAKGYLDTSLIEGNWFDPWGQGTLVTVSS
VL: NIVMTQSPLSLPVTPGEPASISCRSSQSLLHSNGFNYLNWFLQKPGQSPQLLIYLGSNRASGVPDKFSGSGSGTDFTLNINRVEAEDVGIYFCMQTLQTPLTFGGGTKVEIK
notes: also called H1M742N
B2: H2M743N (antibody, V domains shown)
VH: EVQLLESGGGLVQPGGSLRLSCAASGFTFRKYAMSWVRQAPGKGLEWVSVISVSGGNTYYADSVKGRFTISRDNSKNTLYLQLNSLRAEDTAVYYCAKDLTDIVLMVYVDYWGQGTLVTVSS
VL: DIQMTQSPSSVSASVGDRVTITCRASQDIDRWLAWYQQKPGKAPKLLIYAASSLQSGVPSRFSGSGSGTDFTLTISTLQPEDFATYYCQQANSLPFTFGGGTKVEIK
notes: also called H1M743N
B3: H1H695P (antibody, human IgG1, V domains shown)
VH: QVQLVESGGGVVQPGRSLRLSCAASGFTFSSYGMHWVRQAPGKGLEWVAVMWYDETNKYYADSVKGRFTISRDNSKNTLYLQMNSLRAEDTAVYYCARYSGYEDYYHGMDVWGQGTTVTVS
VL: EIVMTQSPATPSVSPGERATLSCRASQSISSNLAWYQQKPGQAPRLLIYGASTRATGIPARFSGSGSGTEFTLTISSLQSEDFAVYYCQHYNNWITFGQGTRLEIK
notes: Human IgG1
B4: H1M749N (antibody, V domains shown)
VH: QVQLVESGGGVVQPGRSLRLSCAASGFTFSSYGMHWVRQAPGKGLEWVAVIWYDEFNKYYADSVKGRFTISRDNSKNTLYLQMNSLRAEDTAVYYCARERESGYSYGFDYWGQGTLVTVSS
VL: EIVMTQSPATLSVSPGERATLSCRAGQSVSSNLAWYQQKPGQAPRLLIYGASTRATGIPARFSGSGSGTEFTLTISSLQSEDFAVYYCQQYNNWWTFGQGTKVEIK
notes: also called H2M749N
B5: H2M744N (antibody, V domains shown)
VH: QVQLVQSGVEVKKPGASVKVSCKTSGYTFSNNGFSWVRQAPGQGLEWLGWISGYNGNTNYAQKFQGRVTMTTDTSTSTAYMELRTLRSDDTAVYYCARDQDYSNFHWLDPWGQGTLVTVAS
VL: DIQMTQSPSSVSASVGDRVIITCRASQGLSSWLAWYQQKPGTAPKLLIHSASSLQTGVPSRFSGSGSGTEFALTINSLQPEDFGTYYCQQANSFPLTFGGGTRVEIK
notes: also called H1M744N; H1M744
B6: H2M750N (antibody, V domains shown)
VH: QVKLVESGGGVVQPGRSLRVSCAASGFTFSSYGMHWVRQAPGKGLEWLAIIWYDGDNKYYSDSVKGRFTISRDNSKNTLYLQMNSLRAEDTAEYYCVRDASIASRFLDYWGQGTLVTVSS
VL: DIQMTQSPSSLSASIGDRVTITCRATQDINNYLAWFQQKPGKAPKSLIYATSNLQSGVPSKFSGSGSGTDYTLTISSLQPEDFSTYYCQQYHSYPLTFGGGTKVEIK
notes: also called H1M750N; H1M750
B7: H1H704P (antibody, V domains shown)
VH: QVQLVESGGDVVQPGRSLRLSCAASGFTFSSYGMHWVRQAPGKGLEWVAIIWYDGSNKYYADSVKGRFTISRDNSKNTLYLQMNSLRVEDTAVYSCARDFSISSRHFDYWGQGTLVTVSS
VL: DIQMTQSPSSLSASVGDRVTITCRASQAINNYLAWFQQKPGKAPKSLIYATSNLQSGVPSQFSGSGSGTDYTLTISSLQPEDFATYYCQQYYIYPITFGQGTRLEIK
notes: Human IgG1
B8: H1H691P (antibody, human IgG1, V domains shown)
VH: EVQLVESGGGLVQPGRSLRLSCAASGFTFDDYAMHWVRQAPGKGLEWVSGISWNSGDIGYADSVKGRFTISRDNAKNSLYLQMNSLRAQDTALYYCAKAYGDYYYFYGMDVWGQGTTVTVS
VL: EIVLTQSPGTLSLSPGERATLSCRASQSVSSSYLAWYQQKPGQAPRLLIFSASSRATGIPDRFSGSGSGTDFTLTISRLEPEDFAVYYCQQYDNSLTFGGGTKVEIK
notes: Human IgG1

Legend:
[1] = target: T1, Biotin-hBA2 (human, biotinylated (sites not given)); test: blocking ELISA, biotin-hBA2 to hTie-2-His, mean of two experiments
T1 construct: hBA2 consists of two dimers; also called biotinylated hBA2; human bow-Ang2
Experimental: (§1) The plate was then blocked with PBS (Irvine Scientific, Santa Ana, Calif.) containing 0.5% BSA (Sigma-Aldrich Corp., St. Louis, Mo.) for one hour at room temperature. […] Human, mouse or monkey Ang-2FD protein conjugated to human IgG (Ang-2FD-hFc) were added to final concentrations of 2 nM, 8 nM, or 2 nM respectively and incubated for one hour at room temperature. The antibody/Ang-2FD-Fc mixture was then added to the plate containing hTie-2-mFc and incubated for one hour at room temperature. Detection of Ang-2FD-hFc bound to hTie-2-mFc protein was determined with Horse-Radish Peroxidase (HRP) conjugated to a-human IgG antibody (Jackson Immuno Research Lab, West Grove, Pa.) and developed by standard colorimetric response using tetramethylbenzidine (TMB) substrate (BD Biosciences, San Jose, Calif.). Absorbance was read at OD₄₅₀ for 0.1 sec.
For this experiment, human Tie-2 conjugated to a histidine tag (hTie-2-His; SEQ ID NO:526) was used in a similar fashion to the hTie-2-mFc described above. Antibody concentrations from 5 nM were serially diluted three-fold. […] An average IC₅₀ value for each antibody was calculated based on two separate experiments.

[2] = target: T1, Biotin-hBA2; test: blocking ELISA, biotin-hBA2 to hTie-2
[3] = target: T2, Human Ang-2FD-hFc (human); test: blocking ELISA, 16.67 nM antibody, Ang-2FD-hFc to coated hTie-2-mFc
T2 construct: also called dimeric human Ang-2FD; human Ang-2FD protein conjugated to human IgG
Experimental: as §1

[4] = target: T3, Mouse Ang-2FD-hFc (mouse (Mus musculus)); test: as above
T3 construct: also called dimeric mouse Ang-2FD
Experimental: as §1

[5] = target: T4, Monkey Ang-2FD-hFc (monkey (Macca fascicularis)); test: as above
T4 construct: also called dimeric monkey Ang-2FD
Experimental: as §1

T3 sequence (chain, as listed by the source limits assumed): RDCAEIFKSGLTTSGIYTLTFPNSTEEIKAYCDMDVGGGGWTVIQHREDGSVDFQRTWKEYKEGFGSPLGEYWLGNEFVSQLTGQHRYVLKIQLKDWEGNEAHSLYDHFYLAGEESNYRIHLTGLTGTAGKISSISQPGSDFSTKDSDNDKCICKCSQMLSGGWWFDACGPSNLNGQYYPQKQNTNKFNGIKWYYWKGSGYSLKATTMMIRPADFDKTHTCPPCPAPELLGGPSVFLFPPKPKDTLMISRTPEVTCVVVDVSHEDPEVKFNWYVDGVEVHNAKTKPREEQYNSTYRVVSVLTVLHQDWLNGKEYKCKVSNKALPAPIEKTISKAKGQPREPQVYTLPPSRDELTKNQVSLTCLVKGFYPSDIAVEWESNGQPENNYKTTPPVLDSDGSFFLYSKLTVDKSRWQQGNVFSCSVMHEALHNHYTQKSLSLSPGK
T1 sequence (chain, as listed by the source limits assumed): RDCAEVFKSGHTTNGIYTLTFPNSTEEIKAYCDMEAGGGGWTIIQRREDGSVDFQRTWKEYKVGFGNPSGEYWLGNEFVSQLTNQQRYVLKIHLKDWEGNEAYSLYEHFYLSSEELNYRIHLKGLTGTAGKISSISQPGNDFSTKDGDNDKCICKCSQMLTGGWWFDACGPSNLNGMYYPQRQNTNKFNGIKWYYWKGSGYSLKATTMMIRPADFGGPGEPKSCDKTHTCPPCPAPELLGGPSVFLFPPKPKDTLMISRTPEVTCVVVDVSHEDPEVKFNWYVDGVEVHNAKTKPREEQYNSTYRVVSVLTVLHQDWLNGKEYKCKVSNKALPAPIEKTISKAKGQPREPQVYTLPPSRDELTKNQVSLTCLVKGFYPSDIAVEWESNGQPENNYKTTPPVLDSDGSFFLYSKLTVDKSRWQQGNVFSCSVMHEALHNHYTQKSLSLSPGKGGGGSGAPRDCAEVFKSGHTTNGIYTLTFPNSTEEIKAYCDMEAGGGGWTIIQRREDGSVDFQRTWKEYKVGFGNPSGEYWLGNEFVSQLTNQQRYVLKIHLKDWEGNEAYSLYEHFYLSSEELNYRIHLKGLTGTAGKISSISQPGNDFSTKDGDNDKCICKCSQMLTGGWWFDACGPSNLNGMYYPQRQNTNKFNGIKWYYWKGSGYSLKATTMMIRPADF
T2 sequence (chain, as listed by the source limits assumed): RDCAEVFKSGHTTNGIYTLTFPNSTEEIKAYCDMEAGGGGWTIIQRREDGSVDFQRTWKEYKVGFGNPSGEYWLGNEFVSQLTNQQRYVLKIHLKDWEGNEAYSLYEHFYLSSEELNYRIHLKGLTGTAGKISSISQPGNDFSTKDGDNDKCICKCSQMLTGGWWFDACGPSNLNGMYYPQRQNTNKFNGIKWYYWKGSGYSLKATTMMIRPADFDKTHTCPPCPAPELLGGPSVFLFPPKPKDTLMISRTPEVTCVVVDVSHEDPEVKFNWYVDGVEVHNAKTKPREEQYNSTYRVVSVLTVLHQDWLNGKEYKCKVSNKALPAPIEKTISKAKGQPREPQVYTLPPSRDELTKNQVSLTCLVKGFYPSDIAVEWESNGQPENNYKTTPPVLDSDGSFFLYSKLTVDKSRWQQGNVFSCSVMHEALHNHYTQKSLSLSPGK
T4 sequence (chain, as listed by the source limits assumed): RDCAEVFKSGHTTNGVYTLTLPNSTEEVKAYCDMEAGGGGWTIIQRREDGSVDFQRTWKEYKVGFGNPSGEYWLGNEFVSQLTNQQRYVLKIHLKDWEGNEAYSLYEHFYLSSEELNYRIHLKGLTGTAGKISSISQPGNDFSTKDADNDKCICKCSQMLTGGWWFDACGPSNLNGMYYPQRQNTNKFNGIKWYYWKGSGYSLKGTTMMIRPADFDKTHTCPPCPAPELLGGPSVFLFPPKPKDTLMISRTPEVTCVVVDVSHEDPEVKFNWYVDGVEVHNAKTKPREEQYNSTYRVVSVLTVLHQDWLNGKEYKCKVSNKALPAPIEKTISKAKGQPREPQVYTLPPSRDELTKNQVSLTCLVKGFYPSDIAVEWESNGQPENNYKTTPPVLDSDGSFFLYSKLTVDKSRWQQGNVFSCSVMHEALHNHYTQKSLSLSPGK

Binder | IC50 [1] [nM] | IC50 [2] [nM] | Percent Blocking of Ang-2FD Binding to Tie-2 [3] [%] | Percent Blocking of Ang-2FD Binding to Tie-2 [4] [%] | Percent Blocking of Ang-2FD Binding to Tie-2 [5] [%]
B1 | 0.00965 | – | – | – | –
B2 | 0.011 | – | – | – | –
B3 | – | 0.059 | 98.4 | 97.6 | –
B4 | 0.00643 | – | – | – | –
B5 | 0.0114 | – | – | – | –
B6 | 0.00883 | – | – | – | –
B7 | – | 0.056 | 97 | 41.8 | –
B8 | – | – | 97.4 | 96.7 | 99.8
